Assay results as given in US20170008928A1, “NOVEL PEPTIDES AND PEPTIDE DERIVATIVES AND USES THEREOF” (Novo Nordisk A/S, priority 2015, published 2017).
Where two headings read alike, the source gives them in different places. Starred links: 1 amine or outer side, 2 acyl side, 3 side chain; linkers in the order of their positions; H or OH if unused. Non-standard residues stand in square brackets, D forms with d. Residues, ends and D or L forms follow the SMILES beside them. No end group written: not given here. *: point of attachment. Phe(4-CH2SO3H) = N[C@@H](Cc1ccc(CS(=O)(=O)O)cc1)C(=O)O; sY = N[C@@H](Cc1ccc(OS(=O)(=O)O)cc1)C(=O)O; C18 diacid = O=C(O)CCCCCCCCCCCCCCCCC(=O)*; d(βAsp) = O=C(O)[C@@H](CC(=O)[*:2])N[*:1]; C16 diacid = O=C(O)CCCCCCCCCCCCCCC(=O)*; γGlu = O=C(O)[C@H](CCC(=O)[*:2])N[*:1]; 1Nal = N[C@@H](Cc1cccc2ccccc12)C(=O)O; C14 diacid = O=C(O)CCCCCCCCCCCCC(=O)*; Met(O2) = CS(=O)(=O)CC[C@H](N)C(=O)O; NMeF = CN[C@@H](Cc1ccccc1)C(=O)O; dNMeD = CN[C@H](CC(=O)O)C(=O)O; Nle = CCCC[C@H](N)C(=O)O; AEEA = NCCOCCOCC(=O)O

Tests used:
[1] = target: T1, human cholecystokinin-1 receptor (human, UniProt P32238 1-428); assay: cell-based or functional assay
T1 sequence (looked up): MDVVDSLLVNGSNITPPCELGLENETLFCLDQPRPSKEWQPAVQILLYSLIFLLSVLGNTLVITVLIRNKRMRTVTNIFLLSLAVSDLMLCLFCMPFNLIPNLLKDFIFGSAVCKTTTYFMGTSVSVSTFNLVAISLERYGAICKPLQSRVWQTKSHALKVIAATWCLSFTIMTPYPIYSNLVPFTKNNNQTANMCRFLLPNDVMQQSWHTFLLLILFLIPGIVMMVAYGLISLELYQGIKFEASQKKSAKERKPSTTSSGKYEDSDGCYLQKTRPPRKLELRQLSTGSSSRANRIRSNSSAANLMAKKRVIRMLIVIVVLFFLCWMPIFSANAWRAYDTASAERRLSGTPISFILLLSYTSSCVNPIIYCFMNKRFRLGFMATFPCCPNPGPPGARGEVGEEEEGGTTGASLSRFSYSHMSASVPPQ

[2] = target: T2, human cholecystokinin-2 receptor (human, UniProt P32239 1-447); assay: cell-based or functional assay
T2 sequence (looked up): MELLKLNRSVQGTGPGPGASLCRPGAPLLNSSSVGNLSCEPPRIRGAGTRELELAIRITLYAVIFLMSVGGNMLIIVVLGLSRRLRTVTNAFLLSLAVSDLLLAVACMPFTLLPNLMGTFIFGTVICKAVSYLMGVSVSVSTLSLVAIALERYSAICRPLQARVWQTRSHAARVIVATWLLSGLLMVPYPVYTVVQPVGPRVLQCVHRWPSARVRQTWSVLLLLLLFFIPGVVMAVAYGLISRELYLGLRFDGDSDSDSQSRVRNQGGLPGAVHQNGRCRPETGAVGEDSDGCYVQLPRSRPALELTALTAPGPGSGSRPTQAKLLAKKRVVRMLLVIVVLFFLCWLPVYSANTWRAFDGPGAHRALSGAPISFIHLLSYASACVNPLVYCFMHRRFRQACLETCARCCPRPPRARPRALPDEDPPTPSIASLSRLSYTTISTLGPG

[3] = target: T3, human cholecystokinin-1 receptor (CCK-1R) (Homo sapiens, UniProt P32238); assay: In vitro potency on CCK-1R, whole cell functional assay (IP1 accumulation, IP-One HTRF); assay type: cell-based; details: for CCK-1R selectivity (EC50 (CCK-2R)/EC50 (CCK-1R)): ratio of functional EC50 values, >1 = preference for CCK-1R
T3 construct: host or cells: 1321-N1 cells
T3 sequence (P32238 1-428): T1 sequence (looked up)

[4] = target: T4, human cholecystokinin-2 receptor (CCK-2R) (Homo sapiens, UniProt P32239); assay: In vitro potency on CCK-2R, whole cell functional assay (IP1 accumulation, IP-One HTRF); assay type: cell-based
T4 construct: host or cells: 1321-N1 cells (plasma membranes prepared by Evotec AG Hamburg)
T4 sequence (P32239 1-447): T2 sequence (looked up)

[5] = target: T3, human cholecystokinin-1 receptor (CCK-1R); assay: In vitro receptor binding to CCK-1R, SPA displacement of [125I]-CCK-8s from plasma membranes; details: for CCK-1R binding selectivity (IC50 (CCK-2R)/IC50 (CCK-1R)): ratio of binding IC50 values, >1 = preference for CCK-1R
[6] = target: T4, human cholecystokinin-2 receptor (CCK-2R); assay: In vitro receptor binding to CCK-2R, SPA displacement of [125I]-CCK-8s from plasma membranes
[7] = target: T2, human cholecystokinin-2 receptor; assay: SPA competition vs [125I]-CCK-8s, membranes
Experimental: CCK receptor binding assays were performed in 96-well Optiplates (Cat #6005290, PerkinElmer, Waltham, Mass., USA) in a total volume of 200 μl per well.
The plates were sealed and incubated in the dark at +22° C. for 2 hours on a IKA MTS plate shaker (IKA-Werke D-79219 Staufen) set at 300 rpm and thereafter centrifuged at 1500 rpm for 10 minutes in a Heraeus Multifuge 3s centrifuge. SPA bead light emission was measured in a TopCount NXT (PerkinElmer) for 2 min/well after a delay of 60 min.

[8] = 1321-N1 cells stably expressing CCK-1R, IP1 accumulation, average of min. three replicates, read-out: EC50 (CCK-1R)
[9] = 1321-N1 cells stably expressing CCK-2R, IP1 accumulation, highest dose tested 1×10^6 pM, read-out: EC50 (CCK-2R)
[10] = displacement of [125I]-CCK-8s, plasma membranes of 1321-N1 cells expressing CCK-2R, highest dose tested 1×10^7 pM, read-out: IC50 (CCK-2R)
[11] = displacement of [125I]-CCK-8s, plasma membranes of 1321-N1 cells expressing CCK-1R, read-out: IC50 (CCK-1R)

## 2-[2-[2-[[2-[2-[2-[[(4S)-4-Carboxy-4-(17-carboxyheptadecanoylamino)butanoyl]amino]ethoxy]ethoxy]acetyl]amino]ethoxy]ethoxy]acetyl-Asp-sTyr-Nle-Gly-Trp-Nle-DMeAsp-1Nal-amide (peptide)
[1]
  EC50 (CCK-1R): 0.37 nM
[2]
  EC50 (CCK-2R): 180 nM

## CC(C)C[C@H](NC(=O)[C@H](Cc1ccc(OS(=O)(=O)O)cc1)NC(=O)[C@H](CCC(=O)O)NC(=O)COCCOCCNC(=O)COCCOCCNC(=O)CC[C@H](NC(=O)CCCCCCCCCCCCCCCCC(=O)O)C(=O)O)C(=O)NCC(=O)N[C@@H](Cc1c[nH]c2ccccc12)C(=O)N[C@@H](CCC(N)=O)C(=O)N(C)[C@H](CC(=O)O)C(=O)N(C)[C@@H](Cc1ccccc1)C(N)=O [Example 42, 2-[2-[2-[[2-[2-[2-[[(4S)-4-Carboxy-4-(17-carboxyheptadecanoylamino)butanoyl]amino]ethoxy]ethoxy]acetyl]amino]ethoxy]ethoxy]acetyl-Glu-sTyr-Leu-Gly-Trp-Gln-DMeAsp-MePhe-amide]
[3]; [8]
  EC50: 0.22 nM
[3]
  CCK-1R selectivity (EC50 (CCK-2R)/EC50 (CCK-1R)): very selective
[4]; [9]
  EC50: > 1000 nM
[5]
  CCK-1R binding selectivity (IC50 (CCK-2R)/IC50 (CCK-1R)): very selective
[6]; [10]
  IC50: > 10000 nM

## CCCC[C@H](NC(=O)[C@H](Cc1ccc(OS(=O)(=O)O)cc1)NC(=O)[C@@H](N)CC(=O)O)C(=O)NCC(=O)N[C@@H](Cc1c[nH]c2ccccc12)C(=O)N[C@@H](CCCC)C(=O)N(C)[C@H](CC(=O)O)C(=O)N[C@@H](Cc1cccc2ccccc12)C(N)=O [Example 54, Asp-sTyr-Nle-Gly-Trp-Nle-DMeAsp-1Nal-amide] (H-D[sY][Nle]GW[Nle][dNMeD][1Nal]-NH2)
[3]; [8]
  EC50: 0.14 nM
[3]
  CCK-1R selectivity (EC50 (CCK-2R)/EC50 (CCK-1R)): 2100
[4]; [9]
  EC50: 290 nM
[5]; [11]
  IC50: 0.027 nM
[5]
  CCK-1R binding selectivity (IC50 (CCK-2R)/IC50 (CCK-1R)): 84000
[6]; [10]
  IC50: 2300 nM

## CCCC[C@H](NC(=O)[C@H](Cc1c[nH]c2ccccc12)NC(=O)CNC(=O)[C@H](Cc1ccccc1)NC(=O)[C@H](Cc1ccc(OS(=O)(=O)O)cc1)NC(=O)[C@@H](N)CC(=O)O)C(=O)N(C)[C@H](CC(=O)O)C(=O)N(C)[C@@H](Cc1ccccc1)C(N)=O [Example 78, Asp-sTyr-Phe-Gly-Trp-Nle-DMeAsp-MePhe-amide] (H-D[sY]FGW[Nle][dNMeD][NMeF]-NH2)
[3]; [8]
  EC50: 0.22 nM
[4]; [9]
  EC50: > 1000 nM
[5]; [11]
  IC50: 0.029 nM
[5]
  CCK-1R binding selectivity (IC50 (CCK-2R)/IC50 (CCK-1R)): 32000
[6]; [10]
  IC50: 920 nM

## CC(C)C[C@H](NC(=O)[C@H](Cc1ccc(OS(=O)(=O)O)cc1)NC(=O)[C@@H](N)CC(=O)O)C(=O)NCC(=O)N[C@@H](Cc1c[nH]c2ccccc12)C(=O)N[C@@H](C)C(=O)N(C)[C@H](CC(=O)O)C(=O)N(C)[C@@H](Cc1ccccc1)C(N)=O [Example 84, Asp-sTyr-Leu-Gly-Trp-Ala-DMeAsp-MePhe-amide] (H-D[sY]LGWA[dNMeD][NMeF]-NH2)
[3]
  EC50: 0.22 nM
[4]
  EC50: > 1000 nM
[5]
  IC50: 0.53 nM
[6]
  IC50: > 10000 nM

B1: 2-[2-[2-[[2-[2-[2-[[(4S)-4-Carboxy-4-(17-carboxyheptadecanoylamino)butanoyl]amino]ethoxy]ethoxy]acetyl]amino]ethoxy]ethoxy]acetyl-DbAsp-Phe(4-sulfomethyl)-Nle-G … (peptide)
peptide: {C18 diacid-γGlu-AEEA-AEEA}-[d(βAsp)][Phe(4-CH2SO3H)][Nle]GW[Nle][dNMeD][NMeF]-NH2
SMILES: CCCC[C@H](NC(=O)[C@H](Cc1ccc(CS(=O)(=O)O)cc1)NC(=O)C[C@@H](NC(=O)COCCOCCNC(=O)COCCOCCNC(=O)CC[C@H](NC(=O)CCCCCCCCCCCCCCCCC(=O)O)C(=O)O)C(=O)O)C(=O)NCC(=O)N[C@@H](Cc1c[nH]c2ccccc12)C(=O)N[C@@H](CCCC)C(=O)N(C)[C@H](CC(=O)O)C(=O)N(C)[C@@H](Cc1ccccc1)C(N)=O
[1]
  EC50 (CCK-1R): 0.43 nM

## D[sY]LGW[Met(O2)][dNMeD][NMeF]-NH2 [Asp-sTyr-Leu-Gly-Trp-Met(O2)-DMeAsp-MePhe-amide]
[1]
  EC50 (CCK-1R): 0.37 nM
[2]
  EC50 (CCK-2R): > 1000 nM

B2: 2-[2-[2-[[2-[2-[2-[[(4S)-4-Carboxy-4-(13-carboxytridecanoylamino)butanoyl]amino]ethoxy]ethoxy]acetyl]amino]ethoxy]ethoxy]acetyl-Glu-sTyr-Leu-Gly-Trp-Nle-DMeAsp- … (peptide)
peptide: {C14 diacid-γGlu-AEEA-AEEA}-E[sY]LGW[Nle][dNMeD][NMeF]-NH2
SMILES: CCCC[C@H](NC(=O)[C@H](Cc1c[nH]c2ccccc12)NC(=O)CNC(=O)[C@H](CC(C)C)NC(=O)[C@H](Cc1ccc(OS(=O)(=O)O)cc1)NC(=O)[C@H](CCC(=O)O)NC(=O)COCCOCCNC(=O)COCCOCCNC(=O)CC[C@H](NC(=O)CCCCCCCCCCCCC(=O)O)C(=O)O)C(=O)N(C)[C@H](CC(=O)O)C(=O)N(C)[C@@H](Cc1ccccc1)C(N)=O
notes: X = Nle or Nal
[2]
  EC50 (CCK-2R): 150 nM
[7]
  IC50: 1200 nM

## {C18 diacid-γGlu-AEEA-AEEA}-[dE][sY]LGW[Nle][dNMeD][NMeF]-NH2 (X = Nle or Nal)
[2]
  EC50 (CCK-2R): 46 nM
[7]
  IC50: 700 nM

## {C18 diacid-γGlu-AEEA-AEEA}-D[sY]IGW[Nle][dNMeD][NMeF]-NH2 (X = Nle or Nal)
[2]
  EC50 (CCK-2R): 210 nM
[7]
  IC50: 340 nM

## {C16 diacid-γGlu-AEEA-AEEA}-E[sY]LGW[Nle][dNMeD][NMeF]-NH2 (X = Nle or Nal)
[2]
  EC50 (CCK-2R): 110 nM
[7]
  IC50: 590 nM

## {C18 diacid-γGlu-AEEA-AEEA}-D[Phe(4-CH2SO3H)]LGW[Nle][dNMeD][NMeF]-NH2 (X = Nle or Nal)
[2]
  EC50 (CCK-2R): 81 nM
[7]
  IC50: 380 nM

## {C18 diacid-γGlu-AEEA-AEEA}-D[sY]HGW[Nle][dNMeD][NMeF]-NH2 (X = Nle or Nal)
[2]
  EC50 (CCK-2R): > 1000 nM
[7]
  IC50: 9000 nM

## {C18 diacid-γGlu-AEEA-AEEA}-D[sY]PGW[Nle][dNMeD][NMeF]-NH2 (X = Nle or Nal)
[2]
  EC50 (CCK-2R): 300 nM
[7]
  IC50: 5200 nM

## {C18 diacid-γGlu-AEEA-AEEA}-E[sY]LGW[Nle][dNMeD][NMeF]-NH2 (X = Nle or Nal)
[2]
  EC50 (CCK-2R): 62 nM
[7]
  IC50: 2400 nM

B3: Asp-sTyr-Phe-Gly-Trp-Nle-DMeAsp-MePhe-amide (peptide)
peptide: D[sY]FGW[Nle][dNMeD][NMeF]-NH2
modifications: N-terminus assumed
SMILES: CCCC[C@H](NC(=O)[C@H](Cc1c[nH]c2ccccc12)NC(=O)CNC(=O)[C@H](Cc1ccccc1)NC(=O)[C@H](Cc1ccc(OS(=O)(=O)O)cc1)NC(=O)[C@@H](N)CC(=O)O)C(=O)N(C)[C@H](CC(=O)O)C(=O)N(C)[C@@H](Cc1ccccc1)C(N)=O
notes: X = Nle or Nal
[1]
  EC50 (CCK-1R): 0.22 nM
[2]
  EC50 (CCK-2R): > 1000 nM
